Our source for the self-cleavage values is the RNAGym collection of RNA variant scans (doi:10.7554/elife.90254).

To fix the notation:
B1: LINE1-mini (parent)
chain: GGCAGAGCUCAACACAGCGUGGCAAAGUGGCUGUGGCUAGACUGCC

In the series the parent is B1. As to the kind of experiment: self-cleavage, relative activity (ratio to wild type); higher = more cleavage; in vitro, sequencing; the parent is a self-cleaving ribozyme.
For the variant GCCAGAGCUCAACACAGCGUGGCAAAGUGGCUGUGGCUAGACAGCC [G2C U43A], the self-cleavage came to 0.04.

On to GCCAGAGCUCAACACAGCGUGGCAAAGUCGCUGUGGCUAGACUGCC [G2C G29C], for which the self-cleavage is 0.06.

Take GCCAGAGCUCAACACAGCGUGGCAAAGUAGCUGUGGCUAGACUGCC [G2C G29A]: the self-cleavage worked out at 0.1.

For GCCAGAGCUCAACACAGCGUGGCAAAGUUGCUGUGGCUAGACUGCC [G2C G29U], the self-cleavage came out at 0.19.

As for GUCAGAGAUCAACACAGCGUGGCAAAGUGGCUGUGGCUAGACUGCC [G2U C8A], the self-cleavage came to 0.07.

With GUCAGAGUUCAACACAGCGUGGCAAAGUGGCUGUGGCUAGACUGCC [G2U C8U], the self-cleavage came to 0.1.

As for GUCAGAGGUCAACACAGCGUGGCAAAGUGGCUGUGGCUAGACUGCC [G2U C8G], the self-cleavage was 0.04.

With GUAAGAGCUCAACACAGCGUGGCAAAGUGGCUGUGGCUAGACUGCC [G2U C3A], the self-cleavage worked out at 0.48.

Take GUGAGAGCUCAACACAGCGUGGCAAAGUGGCUGUGGCUAGACUGCC [G2U C3G]: the self-cleavage amounted to 0.26.

In the case of GUUAGAGCUCAACACAGCGUGGCAAAGUGGCUGUGGCUAGACUGCC [G2U C3U], the self-cleavage came out at 0.37.

For the variant GUCAGAGCUCAACACAGGGUGGCAAAGUGGCUGUGGCUAGACUGCC [G2U C18G], the self-cleavage was 0.03.

As for GUCAGAGCUCAACACAGUGUGGCAAAGUGGCUGUGGCUAGACUGCC [G2U C18U], the self-cleavage worked out at 0.05.

Turning to GUCAGAGCUCAACACAGAGUGGCAAAGUGGCUGUGGCUAGACUGCC [G2U C18A], the self-cleavage turned out to be 0.03.

For GUCAGAGCUCCACACAGCGUGGCAAAGUGGCUGUGGCUAGACUGCC [G2U A11C], the self-cleavage was 0.01.

For GUCAGAGCUCGACACAGCGUGGCAAAGUGGCUGUGGCUAGACUGCC [G2U A11G], the self-cleavage came out at 0.02.

GUCAGAGCUCUACACAGCGUGGCAAAGUGGCUGUGGCUAGACUGCC [G2U A11U]: the self-cleavage was determined as 0.03.

For GCCAGAGCUCAACACAGCGUGGCAAAGUGGCUGUUGCUAGACUGCC [G2C G35U], the self-cleavage is 0.23.

As to GCCAGAGCUCAACACAGCGUGGCAAAGUGGCUGUCGCUAGACUGCC [G2C G35C], the self-cleavage was 0.05.

As to GCCAGAGCUCAACACAGCGUGGCAAAGUGGCUGUAGCUAGACUGCC [G2C G35A], the self-cleavage worked out at 0.06.

As for GCCAGAGCUCAACACAGCCUGGCAAAGUGGCUGUGGCUAGACUGCC [G2C G19C], the self-cleavage is 0.16.

For the variant GCCAGAGCUCAACACAGCAUGGCAAAGUGGCUGUGGCUAGACUGCC [G2C G19A], the self-cleavage amounted to 0.17.

For GCCAGAGCUCAACACAGCUUGGCAAAGUGGCUGUGGCUAGACUGCC [G2C G19U], the self-cleavage worked out at 0.11.

In the case of GCCAGAGCUCAACACAGCGUGGCAAAGUGGCUGUGGCUACACUGCC [G2C G40C], the self-cleavage came to 0.07.

For the variant GCCAGAGCUCAACACAGCGUGGCAAAGUGGCUGUGGCUAAACUGCC [G2C G40A], the self-cleavage turned out to be 0.09.

Regarding GCCAGAGCUCAACACAGCGUGGCAAAGUGGCUGUGGCUAUACUGCC [G2C G40U], the self-cleavage is 0.13.

As for GCCAGAGCACAACACAGCGUGGCAAAGUGGCUGUGGCUAGACUGCC [G2C U9A], the self-cleavage is 0.16.

With GCCAGAGCCCAACACAGCGUGGCAAAGUGGCUGUGGCUAGACUGCC [G2C U9C], the self-cleavage worked out at 0.03.

In the case of GCCAGAGCGCAACACAGCGUGGCAAAGUGGCUGUGGCUAGACUGCC [G2C U9G], the self-cleavage worked out at 0.07.

Regarding GCCAGAGCUCAACACAGCGUGGCAAAUUGGCUGUGGCUAGACUGCC [G2C G27U], the self-cleavage was 0.14.

In the case of GCCAGAGCUCAACACAGCGUGGCAAAAUGGCUGUGGCUAGACUGCC [G2C G27A], the self-cleavage was determined as 0.13.

As to GCCAGAGCUCAACACAGCGUGGCAAACUGGCUGUGGCUAGACUGCC [G2C G27C], the self-cleavage was found to be 0.12.

Regarding GUCAGAGCUCAACACAGCGUGGCAAAGUGGCUGUGGCUAGACUGCC [G2U], the self-cleavage was found to be 0.09.

For GUCAGAGCUCAACACAGCGUGGCAAAGUGGCUGUGGCUUGACUGCC [G2U A39U], the self-cleavage worked out at 0.04.

Take GUCAGAGCUCAACACAGCGUGGCAAAGUGGCUGUGGCUGGACUGCC [G2U A39G]: the self-cleavage is 0.04.

As for GUCAGAGCUCAACACAGCGUGGCAAAGUGGCUGUGGCUCGACUGCC [G2U A39C], the self-cleavage was 0.03.

As for GCCAGAGCUCAACACAGCGUGGCAAAGUGGCUUUGGCUAGACUGCC [G2C G33U], the self-cleavage was 0.05.

For the variant GCCAGAGCUCAACACAGCGUGGCAAAGUGGCUAUGGCUAGACUGCC [G2C G33A], the self-cleavage was found to be 0.04.

As for GCCAGAGCUCAACACAGCGUGGCAAAGUGGCUCUGGCUAGACUGCC [G2C G33C], the self-cleavage is 0.02.

In the case of GCCAGAGCUCAACACAGCGUGGCAAAGUGGCUGUGGCCAGACUGCC [G2C U38C], the self-cleavage amounted to 0.04.

Take GCCAGAGCUCAACACAGCGUGGCAAAGUGGCUGUGGCAAGACUGCC [G2C U38A]: the self-cleavage amounted to 0.06.

As for GCCAGAGCUCAACACAGCGUGGCAAAGUGGCUGUGGCGAGACUGCC [G2C U38G], the self-cleavage turned out to be 0.03.

As to GUCAGAGCUCAACAUAGCGUGGCAAAGUGGCUGUGGCUAGACUGCC [G2U C15U], the self-cleavage came to 0.05.

In the case of GUCAGAGCUCAACAAAGCGUGGCAAAGUGGCUGUGGCUAGACUGCC [G2U C15A], the self-cleavage was 0.04.

In the case of GUCAGAGCUCAACAGAGCGUGGCAAAGUGGCUGUGGCUAGACUGCC [G2U C15G], the self-cleavage was 0.02.

As to GCCAGAGCUCAACACAGCGUGGCAAAGUGGCUGUGACUAGACUGCC [G2C G36A], the self-cleavage amounted to 0.25.

In the case of GCCAGAGCUCAACACAGCGUGGCAAAGUGGCUGUGCCUAGACUGCC [G2C G36C], the self-cleavage amounted to 0.04.

For the variant GCCAGAGCUCAACACAGCGUGGCAAAGUGGCUGUGUCUAGACUGCC [G2C G36U], the self-cleavage is 0.1.

Turning to GUCAGAGCUCAAAACAGCGUGGCAAAGUGGCUGUGGCUAGACUGCC [G2U C13A], the self-cleavage was found to be 0.06.

As to GUCAGAGCUCAAGACAGCGUGGCAAAGUGGCUGUGGCUAGACUGCC [G2U C13G], the self-cleavage worked out at 0.02.

Take GUCAGAGCUCAAUACAGCGUGGCAAAGUGGCUGUGGCUAGACUGCC [G2U C13U]: the self-cleavage was 0.06.

Take GCCAGAGCUCAACACAGCGCGGCAAAGUGGCUGUGGCUAGACUGCC [G2C U20C]: the self-cleavage was determined as 0.08.

For GCCAGAGCUCAACACAGCGGGGCAAAGUGGCUGUGGCUAGACUGCC [G2C U20G], the self-cleavage came to 0.05.

Take GCCAGAGCUCAACACAGCGAGGCAAAGUGGCUGUGGCUAGACUGCC [G2C U20A]: the self-cleavage was 0.06.

Take GCCAGAGCUCAACACAGCGUGGCAAAGUGGCGGUGGCUAGACUGCC [G2C U32G]: the self-cleavage came out at 0.02.

Consider GCCAGAGCUCAACACAGCGUGGCAAAGUGGCCGUGGCUAGACUGCC [G2C U32C], for which the self-cleavage came to 0.08.

As for GCCAGAGCUCAACACAGCGUGGCAAAGUGGCAGUGGCUAGACUGCC [G2C U32A], the self-cleavage was determined as 0.17.
